Starred links: 1 amine or outer side, 2 acyl side, 3 side chain; linkers in the order of their positions; H or OH if unused. Positions of bridges follow the written chain, without caps; N, C: chain ends. Non-standard residues stand in square brackets, D forms with d. Primed or numbered codes have the meaning given here. PyrS2″ = (S)-3-amino-1-((pent-4-en-1-yloxy)carbonyl)pyrrolidine-3-carboxylic acid (stapling residue), C=CCCCOC(=O)N1CC[C@@](N[*:1])(C(=O)[*:2])C1; B5(4) = 2,2-bis(4-pentenyl)glycine = 2-amino-2-(pent-4-en-1-yl)hept-6-enoic acid (stitching residue), C=CCCCC(CCCC=C)(N[*:1])C(=O)[*:2]; B5(5) = 2,2-bis(4-pentenyl)glycine, 2-amino-2-(pent-4-en-1-yl)hept-6-enoic acid (stitching residue), C=CCCCC(CCCC=C)(N[*:1])C(=O)[*:2]; TfeGA = (S)-2-amino-3-((carboxymethyl)(2,2,2-trifluoroethyl)amino)propanoic acid, O=C([C@H](CN(CC(=O)[*:3])CC(F)(F)F)N[*:1])[*:2]; (EtSSpy)AspE = (S)-2-amino-4-oxo-4-(2-(pyridin-2-yldisulfaneyl)ethoxy)butanoic acid, O=C(C[C@H](N[*:1])C(=O)[*:2])OCCSSc1ccccn1; PyrS2 = (S)-3-amino-1-((pent-4-en-1-yloxy)carbonyl)pyrrolidine-3-carboxylic acid, C=CCCCOC(=O)N1CC[C@@](N[*:1])(C(=O)[*:2])C1; B5(22) = 2-amino-2-(pent-4-en-1-yl)hept-6-enoic acid (two alkene side chains), C=CCCCC(CCCC=C)(N[*:1])C(=O)[*:2]; AspSH = (S)-2-amino-4-mercapto-4-oxobutanoic acid, O=C(C[C@H](N[*:1])C(=O)[*:2])S[*:3]; B5 = 2-amino-2-(pent-4-en-1-yl)hept-6-enoic acid, C=CCCCC(CCCC=C)(N[*:1])C(=O)[*:2]; Trp(1-Me) = Cn1cc(C[C@H](N)C(=O)O)c2ccccc21; Phe(2-Cl) = N[C@@H](Cc1ccccc1Cl)C(=O)O; Bta = N[C@@H](Cc1csc2ccccc12)C(=O)O; αAllylPro = C=CC[C@@]1(C(=O)O)CCCN1; tBuAla = CC(C)(C)C[C@H](N)C(=O)O; 3Thi = N[C@@H](Cc1ccsc1)C(=O)O; S8 = C=CCCCCCC[C@](C)(N)C(=O)O; hLeu = CC(C)CC[C@H](N)C(=O)O; Abu = CC[C@H](N)C(=O)O

Assay [1] deals with full-length beta-Catenin (Uniprot ID P35222) (Homo sapiens (Human)) (UniProt P35222). Briefly: fluorescence polarization competition; displacement of 5FAM-TCF4(10-53) from full-length beta-catenin. On the technique in general: In fluorescence polarisation assays a small probe gives low polarisation when free and higher when bound to something large.
Target sequence in this assay (P35222 whole entry, one chain of several): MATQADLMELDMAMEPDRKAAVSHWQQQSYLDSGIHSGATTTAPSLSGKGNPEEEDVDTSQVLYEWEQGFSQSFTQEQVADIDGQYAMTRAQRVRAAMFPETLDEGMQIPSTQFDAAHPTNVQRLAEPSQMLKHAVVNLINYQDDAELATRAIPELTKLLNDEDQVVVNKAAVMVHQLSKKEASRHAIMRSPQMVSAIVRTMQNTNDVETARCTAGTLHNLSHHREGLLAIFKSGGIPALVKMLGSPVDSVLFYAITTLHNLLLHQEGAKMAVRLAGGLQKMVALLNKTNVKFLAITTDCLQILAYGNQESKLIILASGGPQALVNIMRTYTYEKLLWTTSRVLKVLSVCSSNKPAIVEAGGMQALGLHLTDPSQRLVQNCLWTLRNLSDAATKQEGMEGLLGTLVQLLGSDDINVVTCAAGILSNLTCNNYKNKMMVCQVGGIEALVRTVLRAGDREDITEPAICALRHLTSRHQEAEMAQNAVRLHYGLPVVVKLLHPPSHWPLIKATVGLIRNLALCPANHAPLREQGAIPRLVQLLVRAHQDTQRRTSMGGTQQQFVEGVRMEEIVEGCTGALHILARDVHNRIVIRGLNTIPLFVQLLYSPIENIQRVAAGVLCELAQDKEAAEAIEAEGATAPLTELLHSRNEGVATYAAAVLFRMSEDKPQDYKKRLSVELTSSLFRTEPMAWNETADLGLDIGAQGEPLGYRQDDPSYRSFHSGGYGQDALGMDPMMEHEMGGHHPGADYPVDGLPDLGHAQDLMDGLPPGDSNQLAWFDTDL
Assay [2] shares this target. Briefly: competition fluorescence polarization; full-length beta-catenin, 5FAM-TCF4(10-53) probe as competitor.
Target sequence in this assay (P35222 whole entry, one chain of several): as above
For assay [3] the target is unchanged. Description: fluorescence polarization competition; full-length beta-catenin; competitor displaced: 5FAM-TCF4 10-53.
Target sequence in this assay (P35222 2-781 limits assumed): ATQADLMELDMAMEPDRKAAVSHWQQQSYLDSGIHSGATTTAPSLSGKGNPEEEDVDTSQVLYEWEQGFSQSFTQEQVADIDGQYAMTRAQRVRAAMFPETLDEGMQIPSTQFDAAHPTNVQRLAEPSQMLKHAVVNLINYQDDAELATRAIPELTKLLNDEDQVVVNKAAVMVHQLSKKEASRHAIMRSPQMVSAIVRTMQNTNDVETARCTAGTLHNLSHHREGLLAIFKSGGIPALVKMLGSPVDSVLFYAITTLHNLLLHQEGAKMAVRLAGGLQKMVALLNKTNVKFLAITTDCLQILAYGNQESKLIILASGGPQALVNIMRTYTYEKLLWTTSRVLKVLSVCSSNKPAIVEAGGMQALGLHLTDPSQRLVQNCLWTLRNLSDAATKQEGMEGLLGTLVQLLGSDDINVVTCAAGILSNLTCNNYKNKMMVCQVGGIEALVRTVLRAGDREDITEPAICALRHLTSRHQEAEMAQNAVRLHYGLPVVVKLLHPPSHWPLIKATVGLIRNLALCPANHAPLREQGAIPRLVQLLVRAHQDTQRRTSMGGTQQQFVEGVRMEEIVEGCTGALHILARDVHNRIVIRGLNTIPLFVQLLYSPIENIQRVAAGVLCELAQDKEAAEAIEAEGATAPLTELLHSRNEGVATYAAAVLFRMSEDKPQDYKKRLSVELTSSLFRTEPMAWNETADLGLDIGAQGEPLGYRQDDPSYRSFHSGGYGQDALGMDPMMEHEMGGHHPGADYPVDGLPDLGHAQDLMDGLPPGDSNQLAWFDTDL
For assay [4] the target is unchanged. Description: fluorescence polarization competition; full-length beta-catenin + 5FAM-TCF4(10-53) probe; peptide titrated.
Target sequence in this assay (P35222 2-781 limits assumed): as above
In assay [5] the target is Bcat-Halo (UniProt P35222). Briefly: NanoBRET in HEK293 cells (Bcat-Halo / TCF4-Luc), absolute IC50; competitor: TCF4-Luc. In general terms: In BRET a luciferase serves as donor, and the signal depends on an acceptor being close.
Bcat-Halo, sequence (P35222 whole entry): as the sequence (P35222 whole entry, one chain of several) above
In assay [6] the target is full-length beta-Catenin (Uniprot ID P35222) (Homo sapiens (Human)) (UniProt P35222). Briefly: fluorescence polarization competition; 10 nM full-length beta-catenin + 10 nM 5FAM-TCF4(10-53) as competitor probe; peptide titrated.
Target sequence in this assay (P35222 2-781 limits assumed): as the sequence (P35222 2-781 limits assumed) above
Assay [7] has as its target beta-catenin (Homo sapiens (Human)) (UniProt P35222). Briefly: fluorescence polarization competition; full-length beta-catenin with 5FAM-TCF4(10-53) probe as competitor.
Assay [8] addresses full-length beta-Catenin (Uniprot ID P35222) (Homo sapiens (Human)) (UniProt P35222). Briefly: fluorescence polarization competition; 5FAM-TCF4(10-53) probe displaced from full-length beta-catenin.
Target sequence in this assay (P35222 2-781 limits assumed): as above
Assay [9] shares this target. Description: fluorescence polarization competition; full-length beta-catenin, competitor 5FAM-TCF4(10-53) probe.
Target sequence in this assay (P35222 whole entry, one chain of several): as the sequence (P35222 whole entry, one chain of several) above

beta-catenin (Homo sapiens (Human)), sequence (P35222 whole entry): as the sequence (P35222 whole entry, one chain of several) above

One may read the EC50 as the concentration that produces a half-maximal response. A word on the IC50: it is the concentration that inhibits the measured activity by half. For the molecule Ac-[αAllylPro]D[Abu][B5(4)]DEAAFQ[S8]F[Bta]Q-NH2 (staple 1-4, 4-11) [I-568], in [1], the EC50 was determined as 73 nM. This molecule came in with an IC50 in [2] of 73 nM.
As to Ac-[αAllylPro]D[tBuAla][B5(4)]DEAAFN[PyrS2″]F[Bta]Q-NH2 (staple 1-4, 4-11; not fully specified) [I-685], the IC50 worked out at 25 nM in assay [3] and 19400 nM in assay [5]. The EC50 in assay [4] is 25 nM.
As for Ac-[αAllylPro][(EtSSpy)AspE][tBuAla][B5]DDAAFN[PyrS2][Phe(2-Cl)][Bta]Q-NH2 (staple 1-4, 4-11; also: earlier-eluting isomer) [I-1723], the concentration for half-maximal inhibition (IC50) in assay [6] was determined as 62 nM.
As to Ac-[αAllylPro]D[tBuAla][B5(4)]DEAAFN[PyrS2″]F[Bta]Q-NH2 (staple 1-4, 4-11; not fully specified) [I-684], the IC50 in assay [3] amounted to 15 nM; in [5], 14300 nM. Also, the EC50 in [4] came to 15 nM.
In turn, Ac-[αAllylPro]D[Abu][B5(4)]DEAAFQ[S8]F[Bta]H-NH2 (staple 1-4, 4-11) [I-570] came in with an EC50 in assay [1] of 56 nM. The IC50 in assay [2] is 56 nM.
As for Ac-[αAllylPro]D[tBuAla][B5(4)]NTAAFN[PyrS2″][3Thi][Bta]-NH2 (staple 1-4, 4-11) [I-1742], in assay [6], the concentration for half-maximal inhibition (IC50) came to 867 nM.
In the case of Ac-[αAllylPro]D[tBuAla][B5(4)]NTAAFW[PyrS2″][3Thi][Bta]Q-NH2 (staple 1-4, 4-11) [I-1741], the IC50 in assay [6] stood at 4390 nM.
Regarding Ac-[αAllylPro]D[tBuAla][B5(22)]DDAAFL[PyrS2][3Thi][Trp(1-Me)]S-NH2 (staple 1-4, 4-11) [I-1434], the EC50 in [7] stood at 83 nM. The same molecule gave an IC50 in [8] of 83 nM.
Ac-[αAllylPro]D[tBuAla][B5(4)]DDAAFL[PyrS2][3Thi]WQ-NH2 (staple 1-4, 4-11) [I-1431] showed an EC50 in assay [7] of 34 nM. For the same molecule, the IC50 in [8] worked out at 44 nM.
Take Ac-[αAllylPro][(EtSSpy)AspE][tBuAla][B5]DDAAFN[PyrS2][Phe(2-Cl)][Bta]Q-NH2 (staple 1-4, 4-11; not fully specified) [I-1724]: the IC50 in [6] was 551 nM.
In turn, Ac-[αAllylPro]D[hLeu][B5(5)]DDAAFN[S8]F[Bta]H-NH2 (staple 1-4, 4-11) [I-584] registered an IC50 in [2] of 33 nM. In assay [9], the EC50 stood at 33 nM.
On to Ac-[αAllylPro]D[tBuAla][B5(4)]DEAAFN[PyrS2″][3Thi][Bta]Q-NH2 (staple 1-4, 4-11; not fully specified) [I-691], for which the IC50 in [3] was determined as 9 nM; in assay [5], 17000 nM. Besides, the EC50 in assay [4] is 9 nM.
Regarding Ac-[αAllylPro]D[tBuAla][B5(4)]DDAAFL[PyrS2][3Thi]WS-NH2 (staple 1-4, 4-11) [I-1432], the EC50 in assay [7] was 27 nM. Moreover, the IC50 in assay [8] is 27 nM.
Regarding Ac-[αAllylPro]D[tBuAla][B5(4)]NTAAFN[PyrS2″][3Thi][Bta]R-NH2 (staple 1-4, 4-11) [I-1743], the IC50 in assay [6] was determined as 469 nM.
As to Ac-[αAllylPro]D[tBuAla][B5(4)]DEAAFN[S8][3Thi][Bta]Q-NH2 (staple 1-4, 4-11; not fully specified) [I-683], the IC50 was 19 nM in [3] and 6700 nM in [5].
Ac-[αAllylPro]D[tBuAla][B5(4)]DEAAFN[PyrS2″]F[Bta]H-NH2 (staple 1-4, 4-11; not fully specified) [I-692]: the IC50 in [3] was 9 nM; in assay [5] it was 25600 nM. The EC50 in assay [4] was determined as 9 nM.
Ac-[αAllylPro]D[Abu][B5]DDAAFN[S8]F[Bta]H-NH2 (staple 1-4, 4-11) [I-575] returned an IC50 in assay [2] of 21 nM. In assay [9], the EC50 was determined as 21 nM.
For the molecule Ac-[αAllylPro]D[tBuAla][B5(4)]DEAAFN[PyrS2″][3Thi][Bta]Q-NH2 (staple 1-4, 4-11; not fully specified) [I-690], the IC50 in assay [3] turned out to be 7 nM; in assay [5], 17800 nM. Also, in [4], the EC50 was 7 nM.
With Ac-[αAllylPro]D[tBuAla][B5(4)]NTAAFN[PyrS2″][3Thi][Bta]F-NH2 (staple 1-4, 4-11) [I-1744], the IC50 in [6] came to 363 nM.
Ac-[αAllylPro]D[hLeu][B5(5)]DDAAFN[S8]F[Bta]H-NH2 (staple 1-4, 4-11; also: staple isomer, earlier eluting HPLC peak) [I-583] showed an IC50 in assay [2] of 69 nM. In [9], the EC50 stood at 69 nM.
With Ac-[αAllylPro]D[Abu][B5(4)]DEAAFQ[S8]F[Bta]Q-NH2 (staple 1-4, 4-11) [I-569], the EC50 in assay [1] came out at 42 nM. Also, the IC50 in assay [2] stood at 42 nM.
Turning to Ac-[αAllylPro]D[tBuAla][B5(4)]NTAAFN[PyrS2″][3Thi][Bta]N-NH2 (staple 1-4, 4-11) [I-1746], the IC50 in assay [6] came out at 235 nM.
Molecule Ac-[αAllylPro]D[tBuAla][B5(22)]DDAAFL[PyrS2][3Thi][Trp(1-Me)]Q-NH2 (staple 1-4, 4-11) [I-1433] yielded an EC50 in [7] of 71 nM. The IC50 in [8] is 71 nM.
Regarding Ac-[αAllylPro]D[tBuAla][B5(4)]NTAAFN[PyrS2″][3Thi][Bta]T-NH2 (staple 1-4, 4-11) [I-1745], the IC50 in assay [6] came to 402 nM.
Same read-out and setting: under Ac-[αAllylPro][AspSH][tBuAla][B5]DDAAFN[PyrS2][Phe(2-Cl)][Bta]Q-NH2 (staple 1-4, 4-11; not fully specified) [I-1722] stands 135 nM; under Ac-[αAllylPro]D[tBuAla][B5(5)]D[TfeGA]AAFL[PyrS2″][3Thi][Bta]L-NH2 (staple 1-4, 4-11) [I-1747], 187 nM.

Values taken from patent US20240116985A1, “STAPLED PEPTIDES AND METHODS THEREOF” (priority 2020, published 2024).
